Data taken from patent publication US20150203825A1, “Laccase of Podospora Anserina and Uses of Same” (priority 2012, published 2015).

What was measured:
[1] = substrate: CCn1c(=NN=c2sc3cc(S(=O)(=O)O)ccc3n2CC)sc2cc(S(=O)(=O)O)ccc21; experiment: purified protein, by the assay type; details: other: ABTS 0 to 1.5 mM, 0.1 M citrate/phosphate buffer, pH 3.4, 37° C.
[2] = substrate: COc1cc(/C=N/N=C/c2cc(OC)c(O)c(OC)c2)cc(OC)c1O; experiment: Enzymatic test, oxidation of syringaldazine (SGZ) (stationary-phase kinetics); type: biochemical, Podospora anserina; details: other: SGZ 0 to 50 μM (diluted in methanol), citrate-phosphate 50 mM buffer, pH 7, 37° C., 530 nm
Method: The enzymatic tests are carried out using a Varian spectrophotometer in a 0.1 M citrate/phosphate buffer at 37° C. in a volume of 3 ml by monitoring the oxidation of various substrates at a given wavelength as a function of time. The specific activity of the enzyme is expressed in μmol of substrates oxidized per minute and per mg of protein.
The experiments are carried out at 37° C. on a Varian spectrophotometer in a citrate-phosphate 50 mM buffer, pH 7. The concentration of SGZ, diluted in methanol, varies in the test from 0 to 50 μM. The test, initiated by the addition of enzyme, consists in monitoring the oxidation of the SGZ at 530 nm by colorimetric change (ε530nm=64 mM^−1 cm^−1).

[3] = Enzymatic activity (SGZ oxidation) in the presence of NaCl; type: biochemical; details: 150 mM of NaCl, SGZ oxidation at 530 nm, 37° C., 50 mM phosphate-citrate buffer, pH 7
Method: In order to verify the influence of sodium chloride (present in a physiological medium) on the activity of the laccase, increasing concentrations of NaCl were added to the activity test consisting in monitoring the oxidation, at 530 nm, of the SGZ at 37° C. in a 50 mM phosphate-citrate buffer, pH 7.

[4] = Electrochemical measurements, enzymatic electrode with redox polymer, reduction of O2; details: pH 7, in the presence of Cl
Text: At pH 7 and in the presence of Cl, the catalytic current for the reduction of O2 is 40% greater for the electrode modified with the novel enzyme. In addition, the stability over time is 200% greater.

| Molecule | Km [1] | kcat [1] | Km [2] | kcat [2] | oxidation activity still exhibited in the presence of NaCl [3] | catalytic current for the reduction of O2, greater than electrode with laccase of Trametes versicolor [4] | stability over time, greater than electrode with laccase of Trametes versicolor [4] |
| --- | --- | --- | --- | --- | --- | --- | --- |
| Podospora anserina laccase, SEQ ID No. 3 (Podospora anserina S mat+) (protein, purified) SVARKDWESPTYSWLYQFPLPIPPVKTPKLTVTNLVTGNPIHYYEVYINRFTQQVYPNKGPATLVGYDGISPGPTFIVERGHEAVVRFVNNASIENSVHLHGSYSRAPWDGWAEDVTMPGEFKDYYYPNQQAARFLWYHDHAFMHTAENAYFGQAGAYIIHDPAEDALNLPSGYGVHDIPLVLSSKQYNNNGSLFTTNGETDSLFGDVIHVNGQPWPYFNVEPRKYRLRFLDAAVSRTFKLYFQRQTGSSAKIPFQVIATDAGLMASPATTNDLYISMGERYEVVFDFSPFAGQNITLRNTDDVGQDDDYLHTNKVMRFIVGNTPVTDTSSIPSTLATVDWPTSDGTGVDRHFKFDRSNGEWQINGVVFADVNNRVLANVPRGKVEIWELENGGGGWSHPIHIHLVDFKVLWRSNDDGRPVYNYEAQGLKDVVWLAPNEIVRVEAHYAPWDGVYMFHCHNLIHEDHDMMAAFNVTALTDLGYNETAFRDPMEARWRAEPVTAAKFTTAAITEKIQFMAGLQPYNNVEEVLEVLDEYWATHSKRDAQDPAPKTRRMRIEGGKVKEVR | 307 µM | 1372 s⁻¹ | 10.9 µM | 1.3 s⁻¹ |  |  |  |
| laccase of SEQ ID No. 3: Podospora anserina laccase of SEQ ID No. 1 with an additional N-terminal serine, expressed in Pichia pastoris from the pFD56 vector (protein, listed as Podospora anserina) SVARKDWESPTYSWLYQFPLPIPPVKTPKLTVTNLVTGNPIHYYEVYINRFTQQVYPNKGPATLVGYDGISPGPTFIVERGHEAVVRFVNNASIENSVHLHGSYSRAPWDGWAEDVTMPGEFKDYYYPNQQAARFLWYHDHAFMHTAENAYFGQAGAYIIHDPAEDALNLPSGYGVHDIPLVLSSKQYNNNGSLFTTNGETDSLFGDVIHVNGQPWPYFNVEPRKYRLRFLDAAVSRTFKLYFQRQTGSSAKIPFQVIATDAGLMASPATTNDLYISMGERYEVVFDFSPFAGQNITLRNTDDVGQDDDYLHTNKVMRFIVGNTPVTDTSSIPSTLATVDWPTSDGTGVDRHFKFDRSNGEWQINGVVFADVNNRVLANVPRGKVEIWELENGGGGWSHPIHIHLVDFKVLWRSNDDGRPVYNYEAQGLKDVVWLAPNEIVRVEAHYAPWDGVYMFHCHNLIHEDHDMMAAFNVTALTDLGYNETAFRDPMEARWRAEPVTAAKFTTAAITEKIQFMAGLQPYNNVEEVLEVLDEYWATHSKRDAQDPAPKTRRMRIEGGKVKEVR |  |  |  |  | 70% | 40% | 200% |
